PMC4601788

Columns and labels:
[1] = target: rLiPABP (poly(A)-binding protein) (Leishmania infantum) (UniProt A4IBV3); assay: ELONA
[2] = target: Flag-LiPABP (Leishmania infantum) (UniProt A4IBV3); assay: pull-down
[3] = target: Myc-LiPABP (Leishmania infantum) (UniProt A4IBV3); assay: competition
[4] = target: endogenous LiPABP (eLiPABP) (Leishmania infantum) (UniProt A4IBV3); assay: competition

| Sequence | Kd [1] [nM] | binding signal (% of total Flag-LiPABP recovered) [2] | binding signal (% reduction of poly(A) binding) [3] | binding signal (% reduction of poly(A) binding) [4] |
| --- | --- | --- | --- | --- |
| GCGGATGAAGACTGGTGTCCAGAGTGAACACAAAGAAATTGAAATACGTAAGCTCCGGGCCCTAAATACGAGCAAC [ApPABP#7] | 6 | > 75 |  |  |
| GTTGCTCGTATTTAGGGCGGCCCCCTCCTCCCTCCCCCACCCGACACTATTCCCCCCCACACCAGTCTTCATCCGC [ApPABP#11] | 10.8 | < 50 | 80 | 30 |
| GCGGATGAAGACTGGTGTGGACAGTTCTACGAGGATTACGCTGTTACTAAGTGTGGGGGCCCTAAATACGAGCAAC [ApPABP#3] | 5.4 | > 75 |  |  |
